The supplement of paper PMC5998384

How the values were obtained:
HeLa Kyoto [1] = assay: solubility in G1/S (NP-40 vs SDS abundance) (log2 ratio); higher = more soluble; conditions: cell cycle stage: G1/S
HeLa Kyoto [2] = assay: solubility change mitosis vs G1/S (difference of NP-40 vs SDS log2 ratios) (log2 ratio difference); higher = more soluble in mitosis
HeLa Kyoto [3] = assay: thermal stability score vs G1/S (z-score of summed log2 fold changes over temperatures); higher = more thermally stable than in G1/S
HeLa Kyoto [4] = assay: melting temperature (median over replicates), in situ; higher = more thermally stable
[5] = cell cycle stage: early G1 (4.5 h after nocodazole release)
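Throughout, for melting temperature (median over replicates), in situ: HeLa Kyoto cells synchronized by double thymidine or nocodazole block, proteins quantified by TMT10plex mass spectrometry, three independent biological replicates.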
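Throughout, for solubility change mitosis vs G1/S (difference of NP-40 vs SDS log2 ratios): synchronized HeLa Kyoto cells (double thymidine block for G1/S, nocodazole release for mitosis), protein amounts in NP-40 versus SDS lysates quantified by mass spectrometry, three biological replicates.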
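Throughout, for solubility in G1/S (NP-40 vs SDS abundance): HeLa Kyoto cells arrested at G1/S by double thymidine block, proteins quantified by TMT10plex mass spectrometry in mild NP-40 versus SDS extracts, three biological replicates.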
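Throughout, for thermal stability score vs G1/S (z-score of summed log2 fold changes over temperatures): synchronized HeLa Kyoto cells, proteins quantified by TMT10plex mass spectrometry, three biological replicates, mitosis taken 0.5 h after nocodazole release, G1/S directly after double thymidine block.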

| Sequence | solubility in G1/S (log2) (HeLa Kyoto [1]) | solubility change mitosis (log2) (HeLa Kyoto [2]) | thermal stability score (HeLa Kyoto [3]; [5]) | thermal stability score (HeLa Kyoto [3]; cell cycle stage: mitosis) | melting temperature (HeLa Kyoto [4]; cell cycle stage: G1/S) [°C] | melting temperature (HeLa Kyoto [4]; cell cycle stage: mitosis) [°C] |
| --- | --- | --- | --- | --- | --- | --- |
| MKRQGASSERKRARIPSGKAGAANGFLMEVCVDSVESAVNAERGGADRIELCSGLSEGGTTPSMGVLQVVKQSVQIPVFVMIRPRGGDFLYSDREIEVMKADIRLAKLYGADGLVFGALTEDGHIDKELCMSLMAICRPLPVTFHRAFDMVHDPMAALETLLTLGFERVLTSGCDSSALEGLPLIKRLIEQAKGRIVVMPGGGITDRNLQRILEGSGATEFHCSARSTRDSGMKFRNSSVAMGASLSCSEYSLKVTDVTKVRTLNAIAKNILV [CUTC] | -0.00165 | -0.0574 | -0.146 | -0.357 | 54.4 | 54.1 |
| MKRRTDPECTAPIKKQKKRVAELALSLSSTSDDEPPSSVSHGAKASTTSLSGSDSETEGKQHSSDSFDDAFKADSLVEGTSSRYSMYNSVSQKLMAKMGFREGEGLGKYSQGRKDIVEASSQKGRRGLGLTLRGFDQELNVDWRDEPEPSACEQVSWFPECTTEIPDTQEMSDWMVVGKRKMIIEDETEFCGEELLHSVLQCKSVFDVLDGEEMRRARTRANPYEMIRGVFFLNRAAMKMANMDFVFDRMFTNPRDSYGKPLVKDREAELLYFADVCAGPGGFSEYVLWRKKWHAKGFGMTLKGPNDFKLEDFYSASSELFEPYYGEGGIDGDGDITRPENISAFRNFVLDNTDRKGVHFLMADGGFSVEGQENLQEILSKQLLLCQFLMALSIVRTGGHFICKTFDLFTPFSVGLVYLLYCCFERVCLFKPITSRPANSERYVVCKGLKVGIDDVRDYLFAVNIKLNQLRNTDSDVNLVVPLEVIKGDHEFTDYMIRSNESHCSLQIKALAKIHAFVQDTTLSEPRQAEIRKECLRLWGIPDQARVAPSSSDPKSKFFELIQGTEIDIFSYKPTLLTSKTLEKIRPVFDYRCMVSGSEQKFLIGLGKSQIYTWDGRQSDRWIKLDLKTELPRDTLLSVEIVHELKGEGKAQRKISAIHILDVLVLNGTDVREQHFNQRIQLAEKFVKAVSKPSRPDMNPIRVKEVYRLEEMEKIFVRLEMKIIKGSSGTPKLSYTGRDDRHFVPMGLYIVRTVNEPWTMGFSKSFKKKFFYNKKTKDSTFDLPADSIAPFHICYYGRLFWEWGDGIRVHDSQKPQDQDKLSKEDVLSFIQMHRA [CMTR1] | -0.186 | -0.0832 | 0.699 | 1.05 | 49.7 | 51 |
| MKSSVAQIKPSSGHDRRENLNSYQRNSSPEDRYEEQERSPRDRDYFDYSRSDYEHSRRGRSYDSSMESRNRDREKRRERERDTDRKRSRKSPSPGRRNPETSVTQSSSAQDEPATKKKKDELDPLLTRTGGAYIPPAKLRMMQEQITDKNSLAYQRMSWEALKKSINGLINKVNISNISIIIQELLQENIVRGRGLLSRSVLQAQSASPIFTHVYAALVAIINSKFPQIGELILKRLILNFRKGYRRNDKQLCLTASKFVAHLINQNVAHEVLCLEMLTLLLERPTDDSVEVAIGFLKECGLKLTQVSPRGINAIFERLRNILHESEIDKRVQYMIEVMFAVRKDGFKDHPIILEGLDLVEEDDQFTHMLPLEDDYNPEDVLNVFKMDPNFMENEEKYKAIKKEILDEGDTDSNTDQDAGSSEEDEEEEEEEGEEDEEGQKVTIHDKTEINLVSFRRTIYLAIQSSLDFEECAHKLLKMEFPESQTKELCNMILDCCAQQRTYEKFFGLLAGRFCMLKKEYMESFEGIFKEQYDTIHRLETNKLRNVAKMFAHLLYTDSLPWSVLECIKLSEETTTSSSRIFVKIFFQELCEYMGLPKLNARLKDETLQPFFEGLLPRDNPRNTRFAINFFTSIGLGGLTDELREHLKNTPKVIVAQKPDVEQNKSSPSSSSSASSSSESDSSDSDSDSSDSSSESSSEESDSSSISSHSSASANDVRKKGHGKTRSKEVDKLIRNQQTNDRKQKERRQEHGHQETRTERERRSEKHRDQNSSGSNWRDPITKYTSDKDVPSERNNYSRVANDRDQEMHIDLENKHGDPKKKRGERRNSFSENEKHTHRIKDSENFRRKDRSKSKEMNRKHSGSRSDEDRYQNGAERRWEKSSRYSEQSRESKKNQDRRREKSPAKQK [CWC22] | -0.707 | 0.227 | 1.24 | 2.43 | 46.1 | 49.3 |
| MKVHMHTKFCLICLLTFIFHHCNHCHEEHDHGPEALHRQHRGMTELEPSKFSKQAAENEKKYYIEKLFERYGENGRLSFFGLEKLLTNLGLGERKVVEINHEDLGHDHVSHLDILAVQEGKHFHSHNHQHSHNHLNSENQTVTSVSTKRNHKCDPEKETVEVSVKSDDKHMHDHNHRLRHHHRLHHHLDHNNTHHFHNDSITPSERGEPSNEPSTETNKTQEQSDVKLPKGKRKKKGRKSNENSEVITPGFPPNHDQGEQYEHNRVHKPDRVHNPGHSHVHLPERNGHDPGRGHQDLDPDNEGELRHTRKREAPHVKNNAIISLRKDLNEDDHHHECLNVTQLLKYYGHGANSPISTDLFTYLCPALLYQIDSRLCIEHFDKLLVEDINKDKNLVPEDEANIGASAWICGIISITVISLLSLLGVILVPIINQGCFKFLLTFLVALAVGTMSGDALLHLLPHSQGGHDHSHQHAHGHGHSHGHESNKFLEEYDAVLKGLVALGGIYLLFIIEHCIRMFKHYKQQRGKQKWFMKQNTEESTIGRKLSDHKLNNTPDSDWLQLKPLAGTDDSVVSEDRLNETELTDLEGQQESPPKNYLCIEEEKIIDHSHSDGLHTIHEHDLHAAAHNHHGENKTVLRKHNHQWHHKHSHHSHGPCHSGSDLKETGIANIAWMVIMGDGIHNFSDGLAIGAAFSAGLTGGISTSIAVFCHELPHELGDFAVLLKAGMTVKQAIVYNLLSAMMAYIGMLIGTAVGQYANNITLWIFAVTAGMFLYVALVDMLPEMLHGDGDNEEHGFCPVGQFILQNLGLLFGFAIMLVIALYEDKIVFDIQF [SLC39A10] | -0.0606 | -0.0208 | -2.73 | -0.381 | 59.3 | 59 |
| MKVNRETKRLYVGGLSQDISEADLQNQFSRFGEVSDVEIITRKDDQGNPQKVFAYINISVAEADLKKCMSVLNKTKWKGGTLQIQLAKESFLHRLAQEREAAKAKKEESTTGNANLLEKTGGVDFHMKAVPGTEVPGHKNWVVSKFGRVLPVLHLKNQHKRKIIKYDPSKYCHNLKKIGEDFSNTIPISSLTWELEGGNDPMSKKRRGEFSDFHGPPKKIIKVQKDESSTGSLAMSTRPRRVIERPPLTQQQAAQKRTCDSITPSKSSPVPVSDTQKLKNLPFKTSGLETAKKRNSISDDDTDSEDELRMMIAKEENLQRTTQPSINESESDPFEVVRDDFKSGVHKLHSLIGLGIKNRVSCHDSDDDIMRNDREYDSGDTDEIIAMKKNVAKVKNSTEFSQMEKSTKKTSFKNRENCELSDHCIKLQKRKSNVESALSHGLKSLNRKSPSHSSSSEDADSASELADSEGGEEYNAMMKNCLRVNLTLADLEQLAGSDLKVPNEDTKSDGPETTTQCKFDRGSKSPKTPTGLRRGRQCIRPAEIVASLLEGEENTCGKQKPKENNLKPKFQAFKGVGCLYEKESMKKSLKDSVASNNKDQNSMKHEDPSIISMEDGSPYVNGSLGEVTPCQHAKKANGPNYIQPQKRQTTFESQDRKAVSPSSSEKRSKNPISRPLEGKKSLSLSAKTHNIGFDKDSCHSTTKTEASQEERSDSSGLTSLKKSPKVSSKDTREIKTDFSLSISNSSDVSAKDKHAEDNEKRLAALEARQKAKEVQKKLVHNALANLDGHPEDKPTHIIFGSDSECETEETSTQEQSHPGEEWVKESMGKTSGKLFDSSDDDESDSEDDSNRFKIKPQFEGRAGQKLMDLQSHFGTDDRFRMDSRFLETDSEEEQEEVNEKKTAEEEELAEEKKKALNVVQSVLQINLSNSTNRGSVAAKKFKDIIHYDPTKQDHATYERKRDDKPKESKAKRKKKREEAEKLPEVSKEMYYNIAMDLKEIFQTTKYTSEKEEGTPWNEDCGKEKPEEIQDPAALTSDAEQPSGFTFSFFDSDTKDIKEETYRVETVKPGKIVWQEDPRLQDSSSEEEDVTEETDHRNSSPGEASLLEKETTRFFFFSKNDERLQGSDLFWRGVGSNMSRNSWEARTTNLRMDCRKKHKDAKRKMKPK [NOL8] | -1.85 | 1.08 | 1.32 | 2.26 | 51.3 | 51.3 |
